# B1: M17-DOX (monoclonal antibody M17 against activated matriptase conjugated to doxorubicin) (antibody, V domains shown)
# VH: EVKLVESGGGLVQPGGSRKLSCAASGFTFSSFGMHWVRQAPEKGLEWVAYISSGSSTLHYADTVKGRFTISRDNPENTLLLMKLPSLCYGLLGSRNLSPRVLQ
# VL: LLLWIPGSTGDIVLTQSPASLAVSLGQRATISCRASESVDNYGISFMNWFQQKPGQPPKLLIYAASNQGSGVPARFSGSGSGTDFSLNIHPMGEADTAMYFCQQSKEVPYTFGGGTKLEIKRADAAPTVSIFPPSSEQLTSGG
# modifications: doxorubicin coupled via thioether bond formed by the SMCC reaction; sites not stated
# Target: T1, activated matriptase (human, UniProt Q9Y5Y6 1-855)
# T1 sequence (looked up): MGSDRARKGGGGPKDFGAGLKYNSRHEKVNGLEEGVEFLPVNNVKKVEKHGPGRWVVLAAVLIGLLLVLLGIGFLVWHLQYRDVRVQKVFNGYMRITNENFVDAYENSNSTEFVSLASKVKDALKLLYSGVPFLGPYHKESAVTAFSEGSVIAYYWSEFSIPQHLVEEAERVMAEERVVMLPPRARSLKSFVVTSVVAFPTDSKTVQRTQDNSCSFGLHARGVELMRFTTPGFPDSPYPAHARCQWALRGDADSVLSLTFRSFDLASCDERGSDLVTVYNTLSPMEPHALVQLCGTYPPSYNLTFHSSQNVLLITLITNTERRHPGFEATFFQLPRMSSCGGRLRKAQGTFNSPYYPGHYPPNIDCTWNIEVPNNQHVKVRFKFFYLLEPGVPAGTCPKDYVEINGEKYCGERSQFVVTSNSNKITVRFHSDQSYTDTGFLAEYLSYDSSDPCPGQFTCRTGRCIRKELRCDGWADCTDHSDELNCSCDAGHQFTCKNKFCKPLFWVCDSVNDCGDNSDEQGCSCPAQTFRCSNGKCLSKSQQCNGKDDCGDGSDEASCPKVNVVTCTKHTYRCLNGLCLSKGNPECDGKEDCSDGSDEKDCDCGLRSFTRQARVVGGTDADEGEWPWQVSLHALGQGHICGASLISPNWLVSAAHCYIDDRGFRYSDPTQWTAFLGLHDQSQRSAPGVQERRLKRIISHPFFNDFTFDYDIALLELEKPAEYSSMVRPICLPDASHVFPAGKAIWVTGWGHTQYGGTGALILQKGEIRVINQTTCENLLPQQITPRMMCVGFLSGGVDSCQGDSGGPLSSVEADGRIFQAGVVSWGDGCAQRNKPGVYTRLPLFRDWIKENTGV
# Experiment: cell-based or functional assay
binder,measurement,value
B1,"IC50, MTS cell proliferation (cytotoxicity) assay, breast cancer cells MDA-MB468",0.65 µg/mL

# Source: patent US20150250895A1 (GEORGETOWN UNIVERSITY, published 2015)
